Laboratory results: publication PMC11662928, “L1-ORF1p nucleoprotein can rapidly assume distinct conformations and simultaneously bind more than one nucleic acid”

Legend:
[1] = biological target: m128p (CTD, RRM, 3.5 of 14 CC heptads) (UniProt Q9UN81); test: optical tweezers (koff/kon); settings: Binding buffer with 50 mM Na+ (pH and other components not in the material), 21 C (stated for m128p); 8.1 knt ssDNA held at 5-50 pN
[2] = biological target: ORF1p WT (111p) (UniProt Q9UN81); test: optical tweezers (koff/kon); settings: 30 pN tension, 1 nM ORF1p; Binding buffer with 50 mM Na+ (pH and other components not in the material), 21 C (stated for m128p); 8.1 knt ssDNA held at 5-50 pN
ORF1p WT (111p) (UniProt Q9UN81), sequence (Q9UN81 whole entry): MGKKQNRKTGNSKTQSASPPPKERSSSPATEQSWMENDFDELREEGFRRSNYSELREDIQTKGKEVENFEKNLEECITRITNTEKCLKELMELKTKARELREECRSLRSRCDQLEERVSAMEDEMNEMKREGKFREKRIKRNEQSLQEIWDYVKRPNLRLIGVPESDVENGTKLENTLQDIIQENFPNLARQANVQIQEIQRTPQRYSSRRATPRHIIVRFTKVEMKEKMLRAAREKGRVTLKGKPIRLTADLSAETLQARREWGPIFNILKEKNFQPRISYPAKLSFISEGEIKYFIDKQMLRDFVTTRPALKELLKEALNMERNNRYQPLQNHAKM

[3] = biological target: ORF1p WT (111p) (UniProt Q9UN81); test: optical tweezers; settings: 30 pN; K* = compact and de-compact states equally occupied, not a simple Kd; Binding buffer with 50 mM Na+ (pH and other components not in the material), 21 C (stated for m128p); 8.1 knt ssDNA held at 5-50 pN
[4] = biological target: ORF1p WT (111p) (UniProt Q9UN81 1-338); test: confocal fluorescence with optical tweezers; 30 nM ORF1p bound to tethered 8.1 knt ssDNA (ternary complex), 10 and 30 pN; Binding buffer with 50 mM Na+ (pH and other components not in the material), 21 C (stated for m128p); 8.1 knt ssDNA held at 5-50 pN; settings: protein: recombinant; tags: N-terminal His; chain copies: 3; label: 5' Alexa488; single strand
ORF1p WT (111p) (UniProt Q9UN81 1-338), sequence (Q9UN81 whole entry): as above

m128p (CTD, RRM, 3.5 of 14 CC heptads), sequence (Q9UN81 128-338): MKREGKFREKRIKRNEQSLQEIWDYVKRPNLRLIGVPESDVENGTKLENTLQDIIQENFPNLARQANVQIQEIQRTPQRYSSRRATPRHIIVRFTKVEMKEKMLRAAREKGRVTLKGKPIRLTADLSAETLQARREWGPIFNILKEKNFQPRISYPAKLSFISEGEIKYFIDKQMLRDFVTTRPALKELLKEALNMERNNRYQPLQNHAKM

Molecule	Kd [1] [nM]	Kd [2] [nM]	K half [3] [nM]	binding result [4]
8.1 knt ssDNA	1.6	0.17	2.8	
TTTTTTTTTTTTTTTTTTTT (ssDNA) [Alexa488-dT20]				binds
